US20260216366A1, “CONJUGATE AND USES THEREOF” (Full-Life Technologies UK Limited, priority 2022, published 2026)

T1: human Claudin 18.2-VLP (human, UniProt P56856-2 1-261)
T1 construct: also called CLDN18.2
T1 sequence (looked up): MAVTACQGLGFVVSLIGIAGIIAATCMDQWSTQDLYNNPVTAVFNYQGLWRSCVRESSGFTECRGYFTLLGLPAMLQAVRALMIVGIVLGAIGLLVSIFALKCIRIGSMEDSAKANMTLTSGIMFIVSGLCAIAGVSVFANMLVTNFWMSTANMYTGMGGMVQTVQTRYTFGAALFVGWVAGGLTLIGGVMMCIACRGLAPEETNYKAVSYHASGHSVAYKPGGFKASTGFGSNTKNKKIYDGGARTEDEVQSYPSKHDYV

T2: human FAP-hFc (human, UniProt Q12884 26-760)
T2 construct: Coated on the ELISA plate as human FAP-hFc; also called FAP-alpha; not shown: human Fc (hFc)
T2 sequence (looked up): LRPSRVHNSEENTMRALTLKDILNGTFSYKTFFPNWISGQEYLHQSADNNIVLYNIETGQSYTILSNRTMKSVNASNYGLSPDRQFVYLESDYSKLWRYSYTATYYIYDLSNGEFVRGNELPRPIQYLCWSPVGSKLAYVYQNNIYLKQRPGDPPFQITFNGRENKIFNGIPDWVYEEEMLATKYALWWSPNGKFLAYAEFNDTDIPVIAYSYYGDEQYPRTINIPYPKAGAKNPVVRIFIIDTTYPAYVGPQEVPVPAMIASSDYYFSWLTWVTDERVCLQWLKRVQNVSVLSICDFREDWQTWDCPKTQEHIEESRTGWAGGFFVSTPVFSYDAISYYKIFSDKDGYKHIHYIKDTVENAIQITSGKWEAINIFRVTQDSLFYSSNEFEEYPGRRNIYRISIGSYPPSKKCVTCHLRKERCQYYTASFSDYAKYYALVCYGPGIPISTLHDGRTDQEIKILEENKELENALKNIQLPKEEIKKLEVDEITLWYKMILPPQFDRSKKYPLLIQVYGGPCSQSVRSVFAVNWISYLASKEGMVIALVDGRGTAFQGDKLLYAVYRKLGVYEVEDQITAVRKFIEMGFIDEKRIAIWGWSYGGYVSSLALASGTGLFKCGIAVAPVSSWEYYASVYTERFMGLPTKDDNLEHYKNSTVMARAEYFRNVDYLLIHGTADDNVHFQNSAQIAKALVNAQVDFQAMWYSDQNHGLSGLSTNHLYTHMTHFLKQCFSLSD

B1: CLDN18.2-DOTAGA (VHH)
VHH: EVQLVESGGGLVQPGGSLRLSCAASGSFFRIVAMGWYRQAPGSQRELVATITRGGSTYYADSVKGRFTISRDNAKNTLYLQMNSLRAEDTAVYYCNVRVEVPFMQPNDYWGQGTLVTVSS
modifications: DOTAGA chelator conjugated to the sdAb, residue not stated; DOL 1.23
notes: also called CLDN18.2 sdAb conjugated with DOTAGA
B2: CLDN18.2-L001 (VHH)
VHH: EVQLVESGGGLVQPGGSLRLSCAASGSFFRIVAMGWYRQAPGSQRELVATITRGGSTYYADSVKGRFTISRDNAKNTLYLQMNSLRAEDTAVYYCNVRVEVPFMQPNDYWGQGTLVTVSS
modifications: functional linker L001 conjugated to the sdAb, residue not stated; DOL 1.13
notes: also called CLDN18.2 sdAb-linker L001 conjugate
B3: CLDN18.2-L009 (VHH)
VHH: EVQLVESGGGLVQPGGSLRLSCAASGSFFRIVAMGWYRQAPGSQRELVATITRGGSTYYADSVKGRFTISRDNAKNTLYLQMNSLRAEDTAVYYCNVRVEVPFMQPNDYWGQGTLVTVSS
modifications: functional linker L009 conjugated to the sdAb, residue not stated; DOL 1.77
notes: also called CLDN18.2 sdAb-linker L009 conjugate; linker 009 conjugate
B4: CLDN18.2-L004 (VHH)
VHH: EVQLVESGGGLVQPGGSLRLSCAASGSFFRIVAMGWYRQAPGSQRELVATITRGGSTYYADSVKGRFTISRDNAKNTLYLQMNSLRAEDTAVYYCNVRVEVPFMQPNDYWGQGTLVTVSS
modifications: functional linker L004 conjugated to the sdAb, residue not stated; DOL 1.37
notes: also called CLDN18.2 sdAb-linker L004 conjugate
B5: CLDN18.2-L002 (VHH)
VHH: EVQLVESGGGLVQPGGSLRLSCAASGSFFRIVAMGWYRQAPGSQRELVATITRGGSTYYADSVKGRFTISRDNAKNTLYLQMNSLRAEDTAVYYCNVRVEVPFMQPNDYWGQGTLVTVSS
modifications: functional linker L002 conjugated to the sdAb, residue not stated; DOL 1.18
notes: also called CLDN18.2 sdAb-linker L002 conjugate
B6: CLDN18.2-L012 (VHH)
VHH: EVQLVESGGGLVQPGGSLRLSCAASGSFFRIVAMGWYRQAPGSQRELVATITRGGSTYYADSVKGRFTISRDNAKNTLYLQMNSLRAEDTAVYYCNVRVEVPFMQPNDYWGQGTLVTVSS
modifications: functional linker L012 conjugated to the sdAb, residue not stated; DOL 1.65
notes: also called CLDN18.2 sdAb-linker L012 conjugate
B7: CLDN18.2-L010 (VHH)
VHH: EVQLVESGGGLVQPGGSLRLSCAASGSFFRIVAMGWYRQAPGSQRELVATITRGGSTYYADSVKGRFTISRDNAKNTLYLQMNSLRAEDTAVYYCNVRVEVPFMQPNDYWGQGTLVTVSS
modifications: functional linker L010 conjugated to the sdAb, residue not stated; DOL 1.54
notes: also called CLDN18.2 sdAb-linker L010 conjugate; linker 010 conjugate
B8: CLDN18.2-L007 (VHH)
VHH: EVQLVESGGGLVQPGGSLRLSCAASGSFFRIVAMGWYRQAPGSQRELVATITRGGSTYYADSVKGRFTISRDNAKNTLYLQMNSLRAEDTAVYYCNVRVEVPFMQPNDYWGQGTLVTVSS
modifications: functional linker L007 conjugated to the sdAb, residue not stated; DOL 1.69
notes: also called CLDN18.2 sdAb-linker L007 conjugate; linker 007 conjugate
B9: FAP-L007 (VHH)
VHH: QVQLLESGGGLVQPGGSLRLSCAASGFGFGNSLMSWVRRAPGKGLEWVSTIYPRGSFTDYADSVKGRFTISRDNSRNTLYLQMNSLRAEDTAVYYCATGWGRSSDYDPPGQGTLVTVSS
modifications: functional linker L007 conjugated to the sdAb, residue not stated; DOL 0.68
notes: also called FAP sdAb-linker L007 conjugate
B10: FAP-DOTAGA (VHH)
VHH: QVQLLESGGGLVQPGGSLRLSCAASGFGFGNSLMSWVRRAPGKGLEWVSTIYPRGSFTDYADSVKGRFTISRDNSRNTLYLQMNSLRAEDTAVYYCATGWGRSSDYDPPGQGTLVTVSS
modifications: DOTAGA chelator conjugated to the sdAb, residue not stated; DOL 0.42
notes: also called FAP sdAb conjugated with DOTAGA (control)

Assays:
[1] = Pharmacokinetic study of CLDN18.2-linker conjugates (serum ELISA, NCA); assay type: in vivo, BALB/c mice; details: FIG. 2; CLDN18.2 conjugate of the named linker compared to the control group
Experimental: The in vivo pharmacokinetic profile of the CLDN18.2-linker conjugates was analyzed. Briefly, BALB/c mice were administered with the conjugates by intravenous injection at a dose of about 1 mg/kg. Then, whole blood of the animal was collected at different time points over 48 hours.
(§1) The whole blood was collected into a tube without anticoagulation and maintained at room temperature for more than 30 minutes, followed by centrifuge at approximately 5000 rpm at 4° C. for 5 minutes to obtain serum. Concentration of the conjugates in serum was then measured by ELISA using HRP-labeled goat anti-alpaca IgG VHH domain secondary antibody. The data was further analyzed using PK Solver software, and the […] (NCA) was used to evaluate the pharmacokinetic parameters, as shown in Table 7 and FIG. 2.

[2] = test system: CLDN18.2 HEK293T cells; assay: In vivo SPECT imaging of 111In-labeled CLDN18.2 conjugates; set-up: species or system female athymic nude mice; details: FIG. 4, 10 MBq/mouse i.v., over 48 hours, compared to the control group
Experimental: In vivo biodistribution of the CLDN18.2 conjugates was analyzed by SPECT imaging via ^111In labeling. Briefly, the CLDN18.2 conjugates were labeled by ^111In at 30° C. for 60 min and purification by NAP-5 column. followed by analysis of radioactive purity through radio-TLC and radio-HPLC on the same day of labelling. The release criteria for radio-labelled sample was ≥90% radiochemical purity.
For the imaging study, female athymic nude mice (approximately 6-8 weeks old) were each inoculated with 5×10^6 CLDN18.2 HEK293T cells via subcutaneous injection into the shoulder. When the tumor volume reached to about 200 to 300 mm^3, the animal was injected with the labeled conjugate at a dose of 10 MBq/mouse by a single bolus intravenous injection in tail vein. Animals were then subject to whole-body static SPECT followed by CT at different time points under isoflurane anaesthesia. […] In addition, the tumor/kidney ratio was increased around 5-10 folds compared to the control group.

[3] = Pharmacokinetic study of FAP-linker conjugates (serum ELISA, NCA); assay type: in vivo, BALB/c mice; details: FIG. 3; FAP conjugate of the named linker compared to the control group
Experimental: he in vivo pharmacokinetic profile of the FAP-linker conjugates was analyzed. Briefly, BALB/c mice were administered with the conjugates by intravenous injection at a dose of about 1 mg/kg. Then, whole blood of the animal was collected at different time periods over 48 hours.
as §1, with “centrifugated” for “centrifuge”, “8” for “7”, “3.” for “2.”

[4] = test system: FAP expressing HEK293-hFAP cells; assay: In vivo SPECT imaging of 177Lu-labeled FAP conjugates; set-up: species or system female athymic nude mice; details: FIG. 5, 30 MBq/mouse i.v., at different time points
Experimental: In vivo biodistribution of FAP conjugates was analyzed by SPECT imaging via ^177Lu labeling. Briefly, the FAP conjugates were labeled by ^177Lu with a molar activity of 1 MBq/μg at 37° C. for 60 min and purified by size-exclusion chromatography, followed by analysis of radioactive purity through radio-TLC and radio-HPLC on the same day of labelling. The release criteria for radio-labelled sample was ≥90% radiochemical purity.
For the imaging study, female athymic nude mice (approximately 6-8 weeks old) were each inoculated with 5×10^6 FAP expressing HEK293-hFAP cells via subcutaneous injection into the shoulder. When the tumor volume reached to about 150 to 250 mm^3, the animal was injected with the labeled conjugate at a dose of 30 MBq/mouse by a single bolus intravenous injection in tail vein. Animals were then subject to whole-body static SPECT followed by CT at different time points under isoflurane anaesthesia.

[5] = molecular target: T1, human Claudin 18.2-VLP; assay: ELISA, plate coated with human Claudin 18.2-VLP, HRP anti-sdAb detection
Experimental: (§2) Binding affinities of the prepared conjugates with tumor antigen was evaluated by ELISA. […] On the next day, the plate was washed by 0.05% PBST and blocked by 10% StartingBlock buffer (Thermo, #37538) at room temperature for 1 hr. Then, 100 μL of serial diluted conjugate samples in 1% StartingBlock buffer was added to the plate. The plate was further incubated at room temperature for 2 hrs under shaking at 100 rpm and washed by 0.05% PBST. Then 100 μL 0.4 μg/mL HRP-conjugated anti-sdAb secondary antibody (Jackson, #128-035-232) was added and subject to 1 hr incubation at room temperature under shaking at 100 rpm. The plate was then washed by 0.05% PBST and developed using TMB solution (KPL, #5120-00820).

[6] = molecular target: T2, human FAP-hFc; assay: ELISA, plate coated with human FAP-hFc, HRP anti-sdAb detection
Experimental: as §2

Molecule | EC50 [5] [nM] | also measured
O=C(O)CN1CCN(CC(=O)O)CCN(C(CCC(=O)NCC(=O)NC(CCCCNC(=O)CCCc2ccc(I)cc2)C(=O)NCc2ccc(N=C=S)cc2)C(=O)O)CCN(CC(=O)O)CC1 (stereo not shown) [L009] | – | blood circulation of the CLDN18.2 conjugates [1]: significantly prolonged blood circulation; retention of the CLDN18.2 conjugates in tumor [2]: significantly increased retention
O=C(O)CCC(NC(=O)C(CCCCNC(=O)CCCc1ccc(I)cc1)NC(=O)CNC(=O)CCC(C(=O)O)N1CCN(CC(=O)O)CCN(CC(=O)O)CCN(CC(=O)O)CC1)C(=O)NCc1ccc(N=C=S)cc1 (stereo not shown) [L007] | – | blood circulation of the CLDN18.2 conjugates [1]: significantly prolonged blood circulation; blood circulation of the FAP conjugates [3]: significantly prolonged blood circulation; retention of the CLDN18.2 conjugates in tumor [2]: significantly increased retention; retention of the FAP conjugates in tumor [4]: increasing retention
B1 | 0.84 | –
B2 | 1.75 | –
B3 | 3.11 | –
B4 | 3.47 | –
B5 | 2.18 | –
B6 | 1.93 | –
B7 | 2.31 | –
B8 | 7.41 | –
B9 | – | EC50 [6]: 0.0603 nM
B10 | – | EC50 [6]: 0.0553 nM
